Among the data in patent US20250145694A1 (GUANGDONG FEIPENG BIOLOGICAL, published 2025) are Kd, koff and kon values, retold here.

To fix the notation:
B1: Mutation 1-1 (antibody)
heavy: EVQMVESGGGLLKPGGSLKLSCAASGFTFSNYAMSWVRQTPEKRLEWVATISSGGSYSFYPDSVKGRFTISRDNAKNTLYLQMLSLRSEDTAMYYCARRDNYYGSSFMDYWGQGSSVTVSSAKTTPPSVYPLAPGSAAQTNSMVTLGCLVKGYFPEPVTVTWNSGSLSSGVHTFPAVLQSDLYTLSSSVTVPSSTWPSQTVTCNVAHPASSTKVDKKIVPRDCGCKPCICTVPEVSSVFIFPPKPKDVLTITLTPKVTCVVVDISKDDPEVQFSWFVDDVEVHTAQTKPREEQFNSTFRSVSELPIMHQDWLNGKEFKCRVNSAAFPAPIEKTISKTKGRPKAPQVYTIPPPKEQMAKDKVSLTCMITNFFPEDITVEWQWNGQPAENYKNTQPIMDTDGSYFVYSKLNVQKSNWEAGNTFTCSVLHEGLHNHHTEKSLSHSPG
light: DIQMTQTSSSLSASLGDRVTISCRASQEITNYLNWYQQKPDGTIKLLIYYTSRIHSGVSSRFSGSGSGTDYSLTISNLEQEDIATYFCQQGHTLPLTFDTGTKLELKRADAAPTVSIFPPSSEQLTSGGASVVCFLNNFYPKDINVKWKIDGSERQNGVLNSWTDQDSKDSTYSMSSTLTLTKDEYERHNSYTCEATHKTSTSPIVKSFNRNEC
notes: assembled FR/CDR/constant
B2: Mutation 1-3 (antibody)
heavy: EVQMVESGGGLLKPGGSLKLSCAASGFTFSNYAMSWVRQTPEKRLEWVATISSGGSYSYYPDSVKGRFTISRDNAKNTLYLQMLSLRSEDTAMYYCARRDNYPGSSFMDYWGQGSSVTVSSAKTTPPSVYPLAPGSAAQTNSMVTLGCLVKGYFPEPVTVTWNSGSLSSGVHTFPAVLQSDLYTLSSSVTVPSSTWPSQTVTCNVAHPASSTKVDKKIVPRDCGCKPCICTVPEVSSVFIFPPKPKDVLTITLTPKVTCVVVDISKDDPEVQFSWFVDDVEVHTAQTKPREEQFNSTFRSVSELPIMHQDWLNGKEFKCRVNSAAFPAPIEKTISKTKGRPKAPQVYTIPPPKEQMAKDKVSLTCMITNFFPEDITVEWQWNGQPAENYKNTQPIMDTDGSYFVYSKLNVQKSNWEAGNTFTCSVLHEGLHNHHTEKSLSHSPG
light: DIQMTQTSSSLSASLGDRVTISCRASQDITNYLNWYQQKPDGTIKLLIYYTSRLHSGVSSRFSGSGSGTDYSLTISNLEQEDIATYFCQQGHTLPLTFDTGTKLELKRADAAPTVSIFPPSSEQLTSGGASVVCFLNNFYPKDINVKWKIDGSERQNGVLNSWTDQDSKDSTYSMSSTLTLTKDEYERHNSYTCEATHKTSTSPIVKSFNRNEC
notes: assembled FR/CDR/constant
B3: Mutation 1-8 (antibody)
heavy: EVQMVESGGGLLKPGGSLKLSCAASGFTYSNYAMSWVRQTPEKRLEWVATISSGGSYSYYPDSVKGRFTISRDNAKNTLYLQMLSLRSEDTAMYYCARRDNYFGSSFMDYWGQGSSVTVSSAKTTPPSVYPLAPGSAAQTNSMVTLGCLVKGYFPEPVTVTWNSGSLSSGVHTFPAVLQSDLYTLSSSVTVPSSTWPSQTVTCNVAHPASSTKVDKKIVPRDCGCKPCICTVPEVSSVFIFPPKPKDVLTITLTPKVTCVVVDISKDDPEVQFSWFVDDVEVHTAQTKPREEQFNSTFRSVSELPIMHQDWLNGKEFKCRVNSAAFPAPIEKTISKTKGRPKAPQVYTIPPPKEQMAKDKVSLTCMITNFFPEDITVEWQWNGQPAENYKNTQPIMDTDGSYFVYSKLNVQKSNWEAGNTFTCSVLHEGLHNHHTEKSLSHSPG
light: DIQMTQTSSSLSASLGDRVTISCRASQEITNYLNWYQQKPDGTIKLLIYYTSRIHSGVSSRFSGSGSGTDYSLTISNLEQEDIATYFCQQGHTIPLTFDTGTKLELKRADAAPTVSIFPPSSEQLTSGGASVVCFLNNFYPKDINVKWKIDGSERQNGVLNSWTDQDSKDSTYSMSSTLTLTKDEYERHNSYTCEATHKTSTSPIVKSFNRNEC
notes: assembled FR/CDR/constant
B4: Mutation 1-6 (antibody)
heavy: EVQMVESGGGLLKPGGSLKLSCAASGFTYSNYAMSWVRQTPEKRLEWVATISSGGSYSFYPDSVKGRFTISRDNAKNTLYLQMLSLRSEDTAMYYCARRDNYYGSSFMDYWGQGSSVTVSSAKTTPPSVYPLAPGSAAQTNSMVTLGCLVKGYFPEPVTVTWNSGSLSSGVHTFPAVLQSDLYTLSSSVTVPSSTWPSQTVTCNVAHPASSTKVDKKIVPRDCGCKPCICTVPEVSSVFIFPPKPKDVLTITLTPKVTCVVVDISKDDPEVQFSWFVDDVEVHTAQTKPREEQFNSTFRSVSELPIMHQDWLNGKEFKCRVNSAAFPAPIEKTISKTKGRPKAPQVYTIPPPKEQMAKDKVSLTCMITNFFPEDITVEWQWNGQPAENYKNTQPIMDTDGSYFVYSKLNVQKSNWEAGNTFTCSVLHEGLHNHHTEKSLSHSPG
light: DIQMTQTSSSLSASLGDRVTISCRASQDITNYLNWYQQKPDGTIKLLIYYTSRLHSGVSSRFSGSGSGTDYSLTISNLEQEDIATYFCQQGNTIPLTFDTGTKLELKRADAAPTVSIFPPSSEQLTSGGASVVCFLNNFYPKDINVKWKIDGSERQNGVLNSWTDQDSKDSTYSMSSTLTLTKDEYERHNSYTCEATHKTSTSPIVKSFNRNEC
notes: assembled FR/CDR/constant
B5: Mutation 1-7 (antibody)
heavy: EVQMVESGGGLLKPGGSLKLSCAASGFTFSNYAMSWVRQTPEKRLEWVATISSGGSYSYYPDSVKGRFTISRDNAKNTLYLQMLSLRSEDTAMYYCARRDNYFGSTFMDYWGQGSSVTVSSAKTTPPSVYPLAPGSAAQTNSMVTLGCLVKGYFPEPVTVTWNSGSLSSGVHTFPAVLQSDLYTLSSSVTVPSSTWPSQTVTCNVAHPASSTKVDKKIVPRDCGCKPCICTVPEVSSVFIFPPKPKDVLTITLTPKVTCVVVDISKDDPEVQFSWFVDDVEVHTAQTKPREEQFNSTFRSVSELPIMHQDWLNGKEFKCRVNSAAFPAPIEKTISKTKGRPKAPQVYTIPPPKEQMAKDKVSLTCMITNFFPEDITVEWQWNGQPAENYKNTQPIMDTDGSYFVYSKLNVQKSNWEAGNTFTCSVLHEGLHNHHTEKSLSHSPG
light: DIQMTQTSSSLSASLGDRVTISCRASQEITNYLNWYQQKPDGTIKLLIYYTSRIHSGVSSRFSGSGSGTDYSLTISNLEQEDIATYFCQQGHTIPLTFDTGTKLELKRADAAPTVSIFPPSSEQLTSGGASVVCFLNNFYPKDINVKWKIDGSERQNGVLNSWTDQDSKDSTYSMSSTLTLTKDEYERHNSYTCEATHKTSTSPIVKSFNRNEC
notes: assembled FR/CDR/constant
B6: Mutation 1-4 (antibody)
heavy: EVQMVESGGGLLKPGGSLKLSCAASGFTYSNYAMSWVRQTPEKRLEWVATISSGGSYSYYPDSVKGRFTISRDNAKNTLYLQMLSLRSEDTAMYYCARRDNYFGSTFMDYWGQGSSVTVSSAKTTPPSVYPLAPGSAAQTNSMVTLGCLVKGYFPEPVTVTWNSGSLSSGVHTFPAVLQSDLYTLSSSVTVPSSTWPSQTVTCNVAHPASSTKVDKKIVPRDCGCKPCICTVPEVSSVFIFPPKPKDVLTITLTPKVTCVVVDISKDDPEVQFSWFVDDVEVHTAQTKPREEQFNSTFRSVSELPIMHQDWLNGKEFKCRVNSAAFPAPIEKTISKTKGRPKAPQVYTIPPPKEQMAKDKVSLTCMITNFFPEDITVEWQWNGQPAENYKNTQPIMDTDGSYFVYSKLNVQKSNWEAGNTFTCSVLHEGLHNHHTEKSLSHSPG
light: DIQMTQTSSSLSASLGDRVTISCRASQEITNYLNWYQQKPDGTIKLLIYYTSRIHSGVSSRFSGSGSGTDYSLTISNLEQEDIATYFCQQGNTLPLTFDTGTKLELKRADAAPTVSIFPPSSEQLTSGGASVVCFLNNFYPKDINVKWKIDGSERQNGVLNSWTDQDSKDSTYSMSSTLTLTKDEYERHNSYTCEATHKTSTSPIVKSFNRNEC
notes: assembled FR/CDR/constant; Same printed sites as Mutation 1-40
B7: Mutation 1-5 (antibody)
heavy: EVQMVESGGGLLKPGGSLKLSCAASGFTFSNYAMSWVRQTPEKRLEWVATISSGGSYSFYPDSVKGRFTISRDNAKNTLYLQMLSLRSEDTAMYYCARRDNYFGSSFMDYWGQGSSVTVSSAKTTPPSVYPLAPGSAAQTNSMVTLGCLVKGYFPEPVTVTWNSGSLSSGVHTFPAVLQSDLYTLSSSVTVPSSTWPSQTVTCNVAHPASSTKVDKKIVPRDCGCKPCICTVPEVSSVFIFPPKPKDVLTITLTPKVTCVVVDISKDDPEVQFSWFVDDVEVHTAQTKPREEQFNSTFRSVSELPIMHQDWLNGKEFKCRVNSAAFPAPIEKTISKTKGRPKAPQVYTIPPPKEQMAKDKVSLTCMITNFFPEDITVEWQWNGQPAENYKNTQPIMDTDGSYFVYSKLNVQKSNWEAGNTFTCSVLHEGLHNHHTEKSLSHSPG
light: DIQMTQTSSSLSASLGDRVTISCRASQEITNYLNWYQQKPDGTIKLLIYYTSRIHSGVSSRFSGSGSGTDYSLTISNLEQEDIATYFCQQGHTLPLTFDTGTKLELKRADAAPTVSIFPPSSEQLTSGGASVVCFLNNFYPKDINVKWKIDGSERQNGVLNSWTDQDSKDSTYSMSSTLTLTKDEYERHNSYTCEATHKTSTSPIVKSFNRNEC
notes: assembled FR/CDR/constant
B8: Mutation 1-2 (antibody)
heavy: EVQMVESGGGLLKPGGSLKLSCAASGFTYSNYAMSWVRQTPEKRLEWVATISSGGSYSFYPDSVKGRFTISRDNAKNTLYLQMLSLRSEDTAMYYCARRDNYPGSTFMDYWGQGSSVTVSSAKTTPPSVYPLAPGSAAQTNSMVTLGCLVKGYFPEPVTVTWNSGSLSSGVHTFPAVLQSDLYTLSSSVTVPSSTWPSQTVTCNVAHPASSTKVDKKIVPRDCGCKPCICTVPEVSSVFIFPPKPKDVLTITLTPKVTCVVVDISKDDPEVQFSWFVDDVEVHTAQTKPREEQFNSTFRSVSELPIMHQDWLNGKEFKCRVNSAAFPAPIEKTISKTKGRPKAPQVYTIPPPKEQMAKDKVSLTCMITNFFPEDITVEWQWNGQPAENYKNTQPIMDTDGSYFVYSKLNVQKSNWEAGNTFTCSVLHEGLHNHHTEKSLSHSPG
light: DIQMTQTSSSLSASLGDRVTISCRASQEITNYLNWYQQKPDGTIKLLIYYTSRIHSGVSSRFSGSGSGTDYSLTISNLEQEDIATYFCQQGNTIPLTFDTGTKLELKRADAAPTVSIFPPSSEQLTSGGASVVCFLNNFYPKDINVKWKIDGSERQNGVLNSWTDQDSKDSTYSMSSTLTLTKDEYERHNSYTCEATHKTSTSPIVKSFNRNEC
notes: assembled FR/CDR/constant

In this test the target is T1, CTNI quality control recombinant antigen (human, UniProt P19429 1-210, limits assumed).
T1 construct: Recombinant antigen produced by the applicant; also called CTNI quality control recombinant protein (antigen produced by the company); cardiac troponin I
T1 sequence (P19429 whole entry): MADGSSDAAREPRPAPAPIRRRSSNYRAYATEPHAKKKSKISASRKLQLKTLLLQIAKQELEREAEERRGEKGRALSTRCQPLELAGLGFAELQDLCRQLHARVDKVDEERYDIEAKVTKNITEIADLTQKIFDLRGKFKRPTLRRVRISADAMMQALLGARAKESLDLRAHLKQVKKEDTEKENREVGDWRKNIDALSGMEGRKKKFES
In words: BLI, antibody on AMC sensor, cTnI in solution. How it is done: With an AMC sensor, the purified antibody was diluted to 10 μg/ml with PBST, and CTNI quality control recombinant protein (antigen produced by the company) was gradient diluted with PBST to 769.2 nmol/ml, 384.6 nmol/ml, 192.3 nmol/ml, 96.2 nmol/ml, 48.1 nmol/ml, 24 nmol/ml, 12 nmol/ml, and 0 nmol/ml.
On the technique in general: In BLI a coated tip is dipped into the sample, and binding shifts an interference pattern.
With B1, the Kd (in general, the free concentration of one partner at which half of the binding sites on the other are occupied at equilibrium, for simple one-to-one binding) came out at 3.47 nM; the off-rate (koff) (usually the first-order rate constant of dissociation) came out at 0.000124 s⁻¹; the kon – broadly, the rate constant with which the complex forms – came to 35800 M⁻¹ s⁻¹.
For the molecule B2, the Kd came to 4.58 nM, the off-rate (koff) was found to be 5.73e-05 s⁻¹ and the kon stood at 12500 M⁻¹ s⁻¹.
With B3, the Kd turned out to be 6.81 nM, the off-rate (koff) came to 0.000667 s⁻¹ and the kon was 98000 M⁻¹ s⁻¹.
As to B4, the dissociation constant Kd was found to be 9.81 nM, the koff was found to be 0.000275 s⁻¹ and the kon came to 28000 M⁻¹ s⁻¹.
On the same counts, the results for B5 are 4.71 nM, 0.000186 s⁻¹ and 39400 M⁻¹ s⁻¹.
For B6, the dissociation constant (Kd) turned out to be 7.1 nM, the off-rate (koff) is 0.00053 s⁻¹ and the association rate constant (kon) stood at 74600 M⁻¹ s⁻¹.
Turning to B7, the Kd amounted to 0.83 nM, the dissociation rate constant (koff) came out at 0.000807 s⁻¹ and the kon is 972000 M⁻¹ s⁻¹.
For B8, in that order: 2.43 nM, 0.000129 s⁻¹ and 53200 M⁻¹ s⁻¹.
